# Laboratory results as given in FireProtDB (doi:10.1126/science.aai7825).
# Settings: Escherichia coli (strain K12); pH 7.5; Thermal; Intensity; HEPES 20mM; transition: 2; whole UniProt chain shown
row,Protein,Tm [°C]
1,"5-amino-6-(5-phospho-D-ribitylamino)uracil phosphatase YbjI wild type, P75809 (protein) MSIKLIAVDMDGTFLSDQKTYNRERFMAQYQQMKAQGIRFVVASGNQYYQLISFFPEIANEIAFVAENGGWVVSEGKDVFNGELSKDAFATVVEHLLTRPEVEIIACGKNSAYTLKKYDDAMKTVAEMYYHRLEYVDNFDNLEDIFFKFGLNLSDELIPQVQKALHEAIGDIMVSVHTGNGSIDLIIPGVHKANGLRQLQKLWGIDDSEVVVFGDGGNDIEMLRQAGFSFAMENAGSAVVAAAKYRAGSNNREGVLDVIDKVLKHEAPFDQ",41.2
2,"Uncharacterized Nudix hydrolase YfcD wild type, P65556 (protein) MEQRRLASTEWVDIVNEENEVIAQASREQMRAQCLRHRATYIVVHDGMGKILVQRRTETKDFLPGMLDATAGGVVQADEQLLESARREAEEELGIAGVPFAEHGQFYFEDKNCRVWGALFSCVSHGPFALQEDEVSEVCWLTPEEITARCDEFTPDSLKALALWMKRNAKNEAVETETAE",42.1
3,"Ribosome-binding ATPase YchF wild type, P0ABU2 (protein) MGFKCGIVGLPNVGKSTLFNALTKAGIEAANFPFCTIEPNTGVVPMPDPRLDQLAEIVKPQRTLPTTMEFVDIAGLVKGASKGEGLGNQFLTNIRETEAIGHVVRCFENDNIIHVSGKVNPADDIEVINTELALADLDTCERAIHRVQKKAKGGDKDAKAELAVLEKCLPQLENAGMLRALDLSAEEKAAIRYLSFLTLKPTMYIANVNEDGFENNPYLDQVREIAAKEGSVVVPVCAAVEADIAELDDEERDEFMQELGLEEPGLNRVIRAGYKLLNLQTYFTAGVKEVRAWTIPVGATAPQAAGKIHTDFEKGFIRAQTISFEDFITYKGEQGAKEAGKMRAEGKDYIVKDGDVMNFLFNV",41.3
4,"Probable ketoamine kinase YniA wild type, P77739 (protein) MWQAISRLLSEQLGEGEIELRNELPGGEVHAAWHLRYAGHDFFVKCDERELLPGFTAEADQLELLSRSKTVTVPKVWAVGADRDYSFLVMDYLPPRPLDAHSAFILGQQIARLHQWSDQPQFGLDFDNALSTTPQPNTWQRRWSTFFAEQRIGWQLELAAEKGIAFGNIDAIVEHIQQRLASHQPQPSLLHGDLWSGNCALGPDGPYIFDPACYWGDRECDLAMLPLHTEQPPQIYDGYQSVSPLPADFLERQPVYQLYTLLNRARLFGGQHLVIAQQSLDRLLAA",40.4
5,"Probable L,D-transpeptidase YnhG wild type, P76193 (protein) MKRASLLTLTLIGAFSAIQAAWAVDYPLPPTGSRLVGQNQTYTVQEGDKNLQAIARRFDTAAMLILEANNTIAPVPKPGTTITIPSQLLLPDAPRQGIIVNLAELRLYYYPPGENIVQVYPIGIGLQGLETPVMETRVGQKIPNPTWTPTAGIRQRSLERGIKLPPVVPAGPNNPLGRYALRLAHGNGEYLIHGTSAPDSVGLRVSSGCIRMNAPDIKALFSSVRTGTPVKVINEPVKYSVEPNGMRYVEVHRPLSAEEQQNVQTMPYTLPAGFTQFKDNKAVDQKLVDKALYRRAGYPVSVSSGATPAASNAPSVESAQNGEPEQGNMLRVTQ",44.1
6,"Elongation factor P-like protein wild type, P0A6N8 (protein) MPRANEIKKGMVLNYNGKLLLVKDIDIQSPTARGAATLYKMRFSDVRTGLKVEERFKGDDIVDTVTLTRRYVDFSYVDGNEYVFMDKEDYTPYTFTKDQIEEELLFMPEGGMPDMQVLTWDGQLLALELPQTVDLEIVETAPGIKGASASARNKPATLSTGLVIQVPEYLSPGEKIRIHIEERRYMGRAD",43.5
7,"Outer membrane porin C wild type, P06996 (protein) MKVKVLSLLVPALLVAGAANAAEVYNKDGNKLDLYGKVDGLHYFSDNKDVDGDQTYMRLGFKGETQVTDQLTGYGQWEYQIQGNSAENENNSWTRVAFAGLKFQDVGSFDYGRNYGVVYDVTSWTDVLPEFGGDTYGSDNFMQQRGNGFATYRNTDFFGLVDGLNFAVQYQGKNGNPSGEGFTSGVTNNGRDALRQNGDGVGGSITYDYEGFGIGGAISSSKRTDAQNTAAYIGNGDRAETYTGGLKYDANNIYLAAQYTQTYNATRVGSLGWANKAQNFEAVAQYQFDFGLRPSLAYLQSKGKNLGRGYDDEDILKYVDVGATYYFNKNMSTYVDYKINLLDDNQFTRDAGINTDNIVALGLVYQF",43.5
8,"Selenide, water dikinase wild type, P16456 (protein) MSENSIRLTQYSHGAGCGCKISPKVLETILHSEQAKFVDPNLLVGNETRDDAAVYDLGNGTSVISTTDFFMPIVDNPFDFGRIAATNAISDIFAMGGKPIMAIAILGWPINKLSPEIAREVTEGGRYACRQAGIALAGGHSIDAPEPIFGLAVTGIVPTERVKKNSTAQAGCKLFLTKPLGIGVLTTAEKKSLLKPEHQGLATEVMCRMNIAGASFANIEGVKAMTDVTGFGLLGHLSEMCQGAGVQARVDYEAIPKLPGVEEYIKLGAVPGGTERNFASYGHLMGEMPREVRDLLCDPQTSGGLLLAVMPEAENEVKATAAEFGIELTAIGELVPARGGRAMVEIR",41.7
9,"dTDP-glucose 4,6-dehydratase 2 wild type, P27830 (protein) MRKILITGGAGFIGSALVRYIINETSDAVVVVDKLTYAGNLMSLAPVAQSERFAFEKVDICDRAELARVFTEHQPDCVMHLAAESHVDRSIDGPAAFIETNIVGTYTLLEAARAYWNALTEDKKSAFRFHHISTDEVYGDLHSTDDFFTETTPYAPSSPYSASKASSDHLVRAWLRTYGLPTLITNCSNNYGPYHFPEKLIPLMILNALAGKSLPVYGNGQQIRDWLYVEDHARALYCVATTGKVGETYNIGGHNERKNLDVVETICELLEELAPNKPHGVAHYRDLITFVADRPGHDLRYAIDASKIARELGWLPQETFESGMRKTVQWYLANESWWKQVQDGSYQGERLGLKG",42.3
10,"Nucleoid-associated protein YejK wild type, P33920 (protein) MSLDINQIALHQLIKRDEQNLELVLRDSLLEPTETVVEMVAELHRVYSAKNKAYGLFSEESELAQTLRLQRQGEEDFLAFSRAATGRLRDELAKYPFADGGFVLFCHYRYLAVEYLLVAVLSNLSSMRVNENLDINPTHYLDINHADIVARIDLTEWETNPESTRYLTFLKGRVGRKVADFFMDFLGASEGLNAKAQNRGLLQAVDDFTAEAQLDKAERQNVRQQVYSYCNEQLQAGEEIELKSLSKELAGVSEVSFTEFAAEKGYELEESFPADRSTLRQLTKFAGSGGGLTINFDAMLLGERIFWDPATDTLTIKGTPPNLRDQLQRRTSGGN",42.6
11,"Glutathione S-transferase YfcF wild type, P77544 (protein) MSKPAITLWSDAHFFSPYVLSAWVALQEKGLSFHIKTIDLDSGEHLQPTWQGYGQTRRVPLLQIDDFELSESSAIAEYLEDRFAPPTWERIYPLDLENRARARQIQAWLRSDLMPIREERPTDVVFAGAKKAPLTAEGKASAEKLFAMAEHLLVLGQPNLFGEWCIADTDLALMINRLVLHGDEVPERLVDYATFQWQRASVQRFIALSAKQSG",41.6
12,"Imidazole glycerol phosphate synthase subunit HisH wild type, P60595 (protein) MNVVILDTGCANLNSVKSAIARHGYEPKVSRDPDVVLLADKLFLPGVGTAQAAMDQVRERELFDLIKACTQPVLGICLGMQLLGRRSEESNGVDLLGIIDEDVPKMTDFGLPLPHMGWNRVYPQAGNRLFQGIEDGAYFYFVHSYAMPVNPWTIAQCNYGEPFTAAVQKDNFYGVQFHPERSGAAGAKLLKNFLEM",42.4
13,"Exodeoxyribonuclease III wild type, P09030 (protein) MKFVSFNINGLRARPHQLEAIVEKHQPDVIGLQETKVHDDMFPLEEVAKLGYNVFYHGQKGHYGVALLTKETPIAVRRGFPGDDEEAQRRIIMAEIPSLLGNVTVINGYFPQGESRDHPIKFPAKAQFYQNLQNYLETELKRDNPVLIMGDMNISPTDLDIGIGEENRKRWLRTGKCSFLPEEREWMDRLMSWGLVDTFRHANPQTADRFSWFDYRSKGFDDNRGLRIDLLLASQPLAECCVETGIDYEIRSMEKPSDHAPVWATFRR",42.6
14,"FKBP-type peptidyl-prolyl cis-trans isomerase FkpA wild type, P45523 (protein) MKSLFKVTLLATTMAVALHAPITFAAEAAKPATAADSKAAFKNDDQKSAYALGASLGRYMENSLKEQEKLGIKLDKDQLIAGVQDAFADKSKLSDQEIEQTLQAFEARVKSSAQAKMEKDAADNEAKGKEYREKFAKEKGVKTSSTGLVYQVVEAGKGEAPKDSDTVVVNYKGTLIDGKEFDNSYTRGEPLSFRLDGVIPGWTEGLKNIKKGGKIKLVIPPELAYGKAGVPGIPPNSTLVFDVELLDVKPAPKADAKPEADAKAADSAKK",41.8
15,"Phospho-2-dehydro-3-deoxyheptonate aldolase, Phe-sensitive wild type, P0AB91 (protein) MNYQNDDLRIKEIKELLPPVALLEKFPATENAANTVAHARKAIHKILKGNDDRLLVVIGPCSIHDPVAAKEYATRLLALREELKDELEIVMRVYFEKPRTTVGWKGLINDPHMDNSFQINDGLRIARKLLLDINDSGLPAAGEFLDMITPQYLADLMSWGAIGARTTESQVHRELASGLSCPVGFKNGTDGTIKVAIDAINAAGAPHCFLSVTKWGHSAIVNTSGNGDCHIILRGGKEPNYSAKHVAEVKEGLNKAGLPAQVMIDFSHANSSKQFKKQMDVCADVCQQIAGGEKAIIGVMVESHLVEGNQSLESGEPLAYGKSITDACIGWEDTDALLRQLANAVKARRG",41.7
16,"Fructose-1,6-bisphosphatase class 1 wild type, P0A993 (protein) MKTLGEFIVEKQHEFSHATGELTALLSAIKLGAKIIHRDINKAGLVDILGASGAENVQGEVQQKLDLFANEKLKAALKARDIVAGIASEEEDEIVVFEGCEHAKYVVLMDPLDGSSNIDVNVSVGTIFSIYRRVTPVGTPVTEEDFLQPGNKQVAAGYVVYGSSTMLVYTTGCGVHAFTYDPSLGVFCLCQERMRFPEKGKTYSINEGNYIKFPNGVKKYIKFCQEEDKSTNRPYTSRYIGSLVADFHRNLLKGGIYLYPSTASHPDGKLRLLYECNPMAFLAEQAGGKASDGKERILDIIPETLHQRRSFFVGNDHMVEDVERFIREFPDA",42.4
